According to paper PMC6568178 (Theranostics, 2019):

B1: M1-138 (recombinant FOXM1 N-terminal domain (1-138aa) fused with a nine arginine cell-penetrating peptide) (domain or fragment)
chain: MKTSPRRPLILKRRRLPLPVQNAPSETSEEEPKRSPAQQESNQAEASKEVAESNSCKFPAGIKIINHPTMPNTQVVAIPNNANIHSIITALTAKGKESGSSGPNKFILISCGGAPTQPPGLRPQTQTSYDAKRTEVTLRRRRRRRRR
B2: FAM-labeled FOXM1 dsDNA probe (Hot) (dsDNA)
DNA 1: TTTGTTTATTTGTTTGTTTATTTG
DNA 2: CAAATAAACAAACAAATAAACAAA

How the values were obtained:
[1] = biological target: T1, FOXM1 (endogenous) (human (endogenous in MDA-MB-231 and …, UniProt Q08050 1-763)); test: cell-based or functional assay
T1 sequence: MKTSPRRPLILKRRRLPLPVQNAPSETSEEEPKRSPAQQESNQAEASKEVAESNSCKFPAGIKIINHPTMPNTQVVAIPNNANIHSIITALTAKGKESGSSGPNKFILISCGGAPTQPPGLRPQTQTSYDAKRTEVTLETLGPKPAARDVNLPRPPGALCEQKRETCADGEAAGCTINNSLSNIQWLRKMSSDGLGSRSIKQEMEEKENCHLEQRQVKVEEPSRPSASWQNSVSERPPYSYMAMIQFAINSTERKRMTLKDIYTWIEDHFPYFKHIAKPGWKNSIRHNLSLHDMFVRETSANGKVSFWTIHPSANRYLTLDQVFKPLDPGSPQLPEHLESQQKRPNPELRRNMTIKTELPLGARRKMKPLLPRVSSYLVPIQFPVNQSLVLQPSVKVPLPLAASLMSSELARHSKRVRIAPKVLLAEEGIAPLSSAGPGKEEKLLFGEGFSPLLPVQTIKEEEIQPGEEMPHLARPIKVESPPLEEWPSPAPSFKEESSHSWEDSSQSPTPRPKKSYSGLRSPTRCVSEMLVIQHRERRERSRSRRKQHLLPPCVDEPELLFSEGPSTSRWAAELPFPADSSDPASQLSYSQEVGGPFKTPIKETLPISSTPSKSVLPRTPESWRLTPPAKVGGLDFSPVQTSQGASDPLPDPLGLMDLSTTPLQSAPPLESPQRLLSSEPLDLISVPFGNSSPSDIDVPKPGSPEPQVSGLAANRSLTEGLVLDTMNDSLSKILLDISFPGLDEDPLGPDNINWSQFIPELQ

[2] = biological target: T2, FOXM1 full-length (UniProt Q08050-2 1-748); test: EMSA
T2 sequence: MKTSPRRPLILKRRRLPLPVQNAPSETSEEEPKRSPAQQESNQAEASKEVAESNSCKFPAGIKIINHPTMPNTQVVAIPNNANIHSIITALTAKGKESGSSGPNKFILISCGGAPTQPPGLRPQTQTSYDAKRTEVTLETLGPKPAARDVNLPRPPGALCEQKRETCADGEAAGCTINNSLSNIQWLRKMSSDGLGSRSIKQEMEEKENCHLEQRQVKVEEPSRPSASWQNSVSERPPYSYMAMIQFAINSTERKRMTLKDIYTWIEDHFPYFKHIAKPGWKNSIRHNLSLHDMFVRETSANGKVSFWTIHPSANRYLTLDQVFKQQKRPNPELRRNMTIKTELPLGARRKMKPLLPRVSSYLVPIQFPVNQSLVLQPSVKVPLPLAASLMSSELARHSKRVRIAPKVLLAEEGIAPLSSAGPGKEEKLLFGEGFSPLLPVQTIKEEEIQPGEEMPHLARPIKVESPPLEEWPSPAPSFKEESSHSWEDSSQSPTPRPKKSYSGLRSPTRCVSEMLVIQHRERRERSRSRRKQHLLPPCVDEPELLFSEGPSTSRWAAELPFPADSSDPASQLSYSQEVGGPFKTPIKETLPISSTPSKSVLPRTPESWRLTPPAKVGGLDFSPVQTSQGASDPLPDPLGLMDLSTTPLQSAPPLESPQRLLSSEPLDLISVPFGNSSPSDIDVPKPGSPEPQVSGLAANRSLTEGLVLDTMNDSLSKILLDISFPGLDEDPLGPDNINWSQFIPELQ

[3] = biological target: T3, FOXM1 full-length;M1-138 (6xHis-FOXM1(1-138)-R9) (human?;human?, UniProt Q08050-2;Q08050-2 1-748;1-138, |); test: EMSA
T3 sequence 1: T2 sequence
T3 sequence 2: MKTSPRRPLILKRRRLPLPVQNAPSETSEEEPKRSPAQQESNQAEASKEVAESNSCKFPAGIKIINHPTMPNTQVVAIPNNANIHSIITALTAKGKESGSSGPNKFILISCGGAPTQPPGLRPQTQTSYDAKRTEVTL

Row | Binder | IC50 of cell viability (CCK-8), A549 cells, 12 h treatment [1] | IC50 of cell viability (CCK-8), Hela cells, 12 h treatment [1] | IC50 of cell viability (CCK-8), HepG2 cells, 12 h treatment [1] | IC50 of cell viability (CCK-8), MCF-7 cells, 12 h treatment [1] | IC50 of cell viability (CCK-8), MDA-MB-231 cells, 12 h treatment [1] | binding result [2] | binding result [3]
1 | B1 | 5.3 µM | 8.9 µM | 13.8 µM | 17.9 µM | 7.8 µM |  | 
2 | B2 |  |  |  |  |  | binds | binds
